T1: TNFR1 (Homo sapiens, UniProt P19438)
T1 chain: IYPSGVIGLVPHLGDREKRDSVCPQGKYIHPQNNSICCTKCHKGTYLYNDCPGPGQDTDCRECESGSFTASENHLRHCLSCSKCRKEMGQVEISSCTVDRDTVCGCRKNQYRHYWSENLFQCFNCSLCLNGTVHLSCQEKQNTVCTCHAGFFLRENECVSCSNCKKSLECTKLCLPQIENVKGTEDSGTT


Target: T1, TNFR1
Test: yeast display SC50

Binder	apparent Kd (screen)
D32V (designed binder) SMEEEVEKAAKEYEKKKKEAIEKHLEKLKAKVKEAAERFLKELEEAAKEYAKDEAKTMSEEEAKRRAKKYKEKVLLSELSEEEQKEIKEAEEKLVRTILKYVEEAAK	7.07 nM
E72C (designed binder) SMEEEVEKAAKEYEKKKKEAIEKHLEKLKAKDKEAAERFLKELEEAAKEYAKDEAKTMSEEEAKRRAKKYKCKVLLSELSEEEQKEIKEAEEKLVRTILKYVEEAAK	1.05 nM
K52P (designed binder) SMEEEVEKAAKEYEKKKKEAIEKHLEKLKAKDKEAAERFLKELEEAAKEYAPDEAKTMSEEEAKRRAKKYKEKVLLSELSEEEQKEIKEAEEKLVRTILKYVEEAAK	4.39 nM
E7N (designed binder) SMEEEVNKAAKEYEKKKKEAIEKHLEKLKAKDKEAAERFLKELEEAAKEYAKDEAKTMSEEEAKRRAKKYKEKVLLSELSEEEQKEIKEAEEKLVRTILKYVEEAAK	1.27 nM
E103G (designed binder) SMEEEVEKAAKEYEKKKKEAIEKHLEKLKAKDKEAAERFLKELEEAAKEYAKDEAKTMSEEEAKRRAKKYKEKVLLSELSEEEQKEIKEAEEKLVRTILKYVGEAAK	0.539 nM
K107T (designed binder) SMEEEVEKAAKEYEKKKKEAIEKHLEKLKAKDKEAAERFLKELEEAAKEYAKDEAKTMSEEEAKRRAKKYKEKVLLSELSEEEQKEIKEAEEKLVRTILKYVEEAAT	0.869 nM
E78F (designed binder) SMEEEVEKAAKEYEKKKKEAIEKHLEKLKAKDKEAAERFLKELEEAAKEYAKDEAKTMSEEEAKRRAKKYKEKVLLSFLSEEEQKEIKEAEEKLVRTILKYVEEAAK	0.49 nM
E14P (designed binder) SMEEEVEKAAKEYPKKKKEAIEKHLEKLKAKDKEAAERFLKELEEAAKEYAKDEAKTMSEEEAKRRAKKYKEKVLLSELSEEEQKEIKEAEEKLVRTILKYVEEAAK	11.4 nM
K11H (designed binder) SMEEEVEKAAHEYEKKKKEAIEKHLEKLKAKDKEAAERFLKELEEAAKEYAKDEAKTMSEEEAKRRAKKYKEKVLLSELSEEEQKEIKEAEEKLVRTILKYVEEAAK	0.956 nM
I87A (designed binder) SMEEEVEKAAKEYEKKKKEAIEKHLEKLKAKDKEAAERFLKELEEAAKEYAKDEAKTMSEEEAKRRAKKYKEKVLLSELSEEEQKEAKEAEEKLVRTILKYVEEAAK	13.8 nM
K23I (designed binder) SMEEEVEKAAKEYEKKKKEAIEIHLEKLKAKDKEAAERFLKELEEAAKEYAKDEAKTMSEEEAKRRAKKYKEKVLLSELSEEEQKEIKEAEEKLVRTILKYVEEAAK	0.539 nM
A20E (designed binder) SMEEEVEKAAKEYEKKKKEEIEKHLEKLKAKDKEAAERFLKELEEAAKEYAKDEAKTMSEEEAKRRAKKYKEKVLLSELSEEEQKEIKEAEEKLVRTILKYVEEAAK	1.16 nM
L25C (designed binder) SMEEEVEKAAKEYEKKKKEAIEKHCEKLKAKDKEAAERFLKELEEAAKEYAKDEAKTMSEEEAKRRAKKYKEKVLLSELSEEEQKEIKEAEEKLVRTILKYVEEAAK	1.4 nM
L75N (designed binder) SMEEEVEKAAKEYEKKKKEAIEKHLEKLKAKDKEAAERFLKELEEAAKEYAKDEAKTMSEEEAKRRAKKYKEKVNLSELSEEEQKEIKEAEEKLVRTILKYVEEAAK	0.869 nM
L75A (designed binder) SMEEEVEKAAKEYEKKKKEAIEKHLEKLKAKDKEAAERFLKELEEAAKEYAKDEAKTMSEEEAKRRAKKYKEKVALSELSEEEQKEIKEAEEKLVRTILKYVEEAAK	0.405 nM

Now from value to binder:

apparent Kd (screen)	Binder
2.48 nM	K71F (designed binder) SMEEEVEKAAKEYEKKKKEAIEKHLEKLKAKDKEAAERFLKELEEAAKEYAKDEAKTMSEEEAKRRAKKYFEKVLLSELSEEEQKEIKEAEEKLVRTILKYVEEAAK
1.86 nM	T97G (designed binder) SMEEEVEKAAKEYEKKKKEAIEKHLEKLKAKDKEAAERFLKELEEAAKEYAKDEAKTMSEEEAKRRAKKYKEKVLLSELSEEEQKEIKEAEEKLVRGILKYVEEAAK
0.539 nM	K100Q (designed binder) SMEEEVEKAAKEYEKKKKEAIEKHLEKLKAKDKEAAERFLKELEEAAKEYAKDEAKTMSEEEAKRRAKKYKEKVLLSELSEEEQKEIKEAEEKLVRTILQYVEEAAK
22.2 nM	A67Y (designed binder) SMEEEVEKAAKEYEKKKKEAIEKHLEKLKAKDKEAAERFLKELEEAAKEYAKDEAKTMSEEEAKRRYKKYKEKVLLSELSEEEQKEIKEAEEKLVRTILKYVEEAAK
0.446 nM	E19F (designed binder) SMEEEVEKAAKEYEKKKKFAIEKHLEKLKAKDKEAAERFLKELEEAAKEYAKDEAKTMSEEEAKRRAKKYKEKVLLSELSEEEQKEIKEAEEKLVRTILKYVEEAAK
1.4 nM	K16R (designed binder) SMEEEVEKAAKEYEKRKKEAIEKHLEKLKAKDKEAAERFLKELEEAAKEYAKDEAKTMSEEEAKRRAKKYKEKVLLSELSEEEQKEIKEAEEKLVRTILKYVEEAAK
3.99 nM	A63S (designed binder) SMEEEVEKAAKEYEKKKKEAIEKHLEKLKAKDKEAAERFLKELEEAAKEYAKDEAKTMSEEESKRRAKKYKEKVLLSELSEEEQKEIKEAEEKLVRTILKYVEEAAK
1.05 nM	K16T (designed binder) SMEEEVEKAAKEYEKTKKEAIEKHLEKLKAKDKEAAERFLKELEEAAKEYAKDEAKTMSEEEAKRRAKKYKEKVLLSELSEEEQKEIKEAEEKLVRTILKYVEEAAK
7.07 nM	R66S (designed binder) SMEEEVEKAAKEYEKKKKEAIEKHLEKLKAKDKEAAERFLKELEEAAKEYAKDEAKTMSEEEAKRSAKKYKEKVLLSELSEEEQKEIKEAEEKLVRTILKYVEEAAK
0.718 nM	K41Q (designed binder) SMEEEVEKAAKEYEKKKKEAIEKHLEKLKAKDKEAAERFLQELEEAAKEYAKDEAKTMSEEEAKRRAKKYKEKVLLSELSEEEQKEIKEAEEKLVRTILKYVEEAAK
12.5 nM	E54N (designed binder) SMEEEVEKAAKEYEKKKKEAIEKHLEKLKAKDKEAAERFLKELEEAAKEYAKDNAKTMSEEEAKRRAKKYKEKVLLSELSEEEQKEIKEAEEKLVRTILKYVEEAAK
1.86 nM	L28R (designed binder) SMEEEVEKAAKEYEKKKKEAIEKHLEKRKAKDKEAAERFLKELEEAAKEYAKDEAKTMSEEEAKRRAKKYKEKVLLSELSEEEQKEIKEAEEKLVRTILKYVEEAAK
1.05 nM	E60C (designed binder) SMEEEVEKAAKEYEKKKKEAIEKHLEKLKAKDKEAAERFLKELEEAAKEYAKDEAKTMSCEEAKRRAKKYKEKVLLSELSEEEQKEIKEAEEKLVRTILKYVEEAAK
4.83 nM	I98K (designed binder) SMEEEVEKAAKEYEKKKKEAIEKHLEKLKAKDKEAAERFLKELEEAAKEYAKDEAKTMSEEEAKRRAKKYKEKVLLSELSEEEQKEIKEAEEKLVRTKLKYVEEAAK
3 nM	K100P (designed binder) SMEEEVEKAAKEYEKKKKEAIEKHLEKLKAKDKEAAERFLKELEEAAKEYAKDEAKTMSEEEAKRRAKKYKEKVLLSELSEEEQKEIKEAEEKLVRTILPYVEEAAK
0.539 nM	E4S (designed binder) SMESEVEKAAKEYEKKKKEAIEKHLEKLKAKDKEAAERFLKELEEAAKEYAKDEAKTMSEEEAKRRAKKYKEKVLLSELSEEEQKEIKEAEEKLVRTILKYVEEAAK
3 nM	E14K (designed binder) SMEEEVEKAAKEYKKKKKEAIEKHLEKLKAKDKEAAERFLKELEEAAKEYAKDEAKTMSEEEAKRRAKKYKEKVLLSELSEEEQKEIKEAEEKLVRTILKYVEEAAK
1.69 nM	E86I (designed binder) SMEEEVEKAAKEYEKKKKEAIEKHLEKLKAKDKEAAERFLKELEEAAKEYAKDEAKTMSEEEAKRRAKKYKEKVLLSELSEEEQKIIKEAEEKLVRTILKYVEEAAK
0.49 nM	E22D (designed binder) SMEEEVEKAAKEYEKKKKEAIDKHLEKLKAKDKEAAERFLKELEEAAKEYAKDEAKTMSEEEAKRRAKKYKEKVLLSELSEEEQKEIKEAEEKLVRTILKYVEEAAK
6.43 nM	A51P (designed binder) SMEEEVEKAAKEYEKKKKEAIEKHLEKLKAKDKEAAERFLKELEEAAKEYPKDEAKTMSEEEAKRRAKKYKEKVLLSELSEEEQKEIKEAEEKLVRTILKYVEEAAK
